From the supplement of paper PMC10724198
± gives the standard deviation of the averaged measurements.

Assays:
[1] = tested on: Saccharomyces cerevisiae; experiment: protein stability index of tFT-peptide fusion (C-terminal peptide) (PSI (0-1 scale)); higher = more stable (slower turnover)
Experimental: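 MPS profiling in S. cerevisiae of the tFT-X12 degron library: putative degron peptides plus stable controls, 12 aa, fused to the C-terminus of a sfGFP-mCherry timer. Cells are FACS-sorted into 8 mCherry/sfGFP bins and deep-sequenced. PSI runs from 0 (unstable) to 1 (stable). Backgrounds are wild type, das1Δ and doa10Δ at 30 °C, and wild type, das1Δ, cdc34-1 and cdc53-1 at 37 °C; 2-3 technical replicates each.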

[2] = tested on: Saccharomyces cerevisiae; experiment: as above; conditions: genetic background: wild type; temperature: 30 C
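Also: PSI is a weighted mean of sequencing reads over stability bins, variants kept only with over 10 reads, mCherry proximal and sfGFP distal, peptide attached via GGGS linker.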

Row | Sequence | protein stability index [2] | other results
1 | LPPTPPLSPPPH |  | protein stability index ([1]; genetic background: cdc34-1, temperature: 37 C): 0.644 ± 0.025; protein stability index ([1]; genetic background: cdc53-1, temperature: 37 C): 0.688 ± 0.0077; protein stability index ([1]; genetic background: das1 deletion, temperature: 30 C): 0.435 ± 0.028; protein stability index ([1]; genetic background: das1 deletion, temperature: 37 C): 0.5935 ± 0.0017; protein stability index ([1]; genetic background: doa10 deletion, temperature: 30 C): 0.414 ± 0.0084; protein stability index ([1]; genetic background: wild type, temperature: 30 C): 0.433 ± 0.014; protein stability index ([1]; genetic background: wild type, temperature: 37 C): 0.5864 ± 0.005
2 | SRRYLPHRPTSL | 0.732 ± 0.071 | 
3 | PPAPSPRPPPPP | 0.708 ± 0.067 | 
4 | FPLDNIALQSFP | 0.774 ± 0.099 | 
5 | LFSDLCRVAWSL | 0.615 ± 0.021 | 
6 | KRKERKGEKKRR | 0.685 ± 0.033 | 
7 | SPPSPYPPPLDR | 0.695 ± 0.021 | 
8 | NKKKNKKIRQEK | 0.685 ± 0.017 | 
9 | LIILKNKRKNKI | 0.704 ± 0.04 | 
10 | PPPPSSPFPHAS | 0.697 ± 0.03 | 
11 | LPDVFLSSFFCL | 0.709 ± 0.027 | 
12 | HTPTFPTSPPPP | 0.68 ± 0.016 | 
13 | CHPFQAAVPIYL | 0.581 ± 0.12 | 
14 | DFGVRLGGPRTL | 0.645 ± 0.017 | 
15 | KIIGVRLKFDRS | 0.761 ± 0.14 | 
16 | HPPSLPSAPSLP | 0.694 ± 0.029 | 
17 | SWVFSVDNGLVV | 0.6133 ± 0.0012 | 
18 | PPHPRTPPATPP | 0.601 ± 0.12 | 
19 | WVGGDINFWWGG | 0.747 ± 0.12 | 
20 | ASDSNPLDPADD | 0.708 ± 0.011 | 
21 | FILLLPSPPPAP | 0.618 ± 0.034 | 
22 | PTLLQPPPPSYP | 0.704 ± 0.048 | 
23 | RPLRVLSYVPIH | 0.644 ± 0.03 | 
24 | QPPPPSPPPPLP | 0.653 ± 0.047 | 

Row | Sequence | protein stability index [2] | other results
25 | TLYHWELEPRNP | 0.664 ± 0.013 | 
26 | FVFSMDAFRSGL | 0.665 ± 0.045 | 
27 | RCIASHRLSLRT | 0.682 ± 0.037 | 
28 | SGRSRVAGVERR | 0.708 ± 0.062 | 
29 | LLLGSFFNKPTT | 0.678 ± 0.035 | 
30 | SSRPTLLSPPPA | 0.706 ± 0.012 | 
31 | EWRWPTELNRKG | 0.75 ± 0.051 | 
32 | DSTVGRTLRTRR | 0.617 ± 0.068 | 
33 | RYSRVALRPRPP | 0.579 ± 0.052 | 
34 | QIIRKKSKVPTH | 0.686 ± 0.057 | 
35 | ATSFSLLPACFS | 0.686 ± 0.0007 | 
36 | AKKKKKTKRRKK | 0.692 ± 0.07 | 
37 | PAPGLTPAGRAP | 0.777 ± 0.14 | 
38 | GWRFGKVCGLGG | 0.726 ± 0.07 | 
39 | RAARQRSVYQHG | 0.6481 ± 0.0037 | 
40 | GGAEEGRANCWN | 0.722 ± 0.1 | 
41 | APPPPPPPCAPS | 0.657 ± 0.043 | 
42 | PLPFPPPLPPPT | 0.681 ± 0.043 | 
43 | RIDLFCVRSSLV | 0.6573 ± 0.0054 | 
44 | WANGEFSLGCGG | 0.712 ± 0.017 | 
45 | DQEENKRTNGTR | 0.7096 ± 0.0034 | 
46 | MGHKDDRGFADR | 0.657 ± 0.013 | 
47 | RLVRVTSIKGKR | 0.735 ± 0.054 | 
48 | GGGGGGPSGGSG | 0.701 ± 0.079 | 

Row | Sequence | protein stability index [2] | other results
49 | LPSPSPPPPLLP | 0.743 ± 0.022 | 
50 | ALHPPSPPPPAP | 0.7313 ± 0.0027 | 
51 | SPSLPPLSPPNP | 0.699 ± 0.039 | 
52 | KKQKKKPQNKKK | 0.954 ± 0.066 | 
53 | VGGEGVGVGGEV | 0.616 ± 0.018 | 
54 | PSAPRPSPPALP | 0.855 ± 0.11 | 
55 | MQLPSHFEAWTS | 0.781 ± 0.03 | 
56 | APRPLPPPPSPC | 0.726 ± 0.027 | 
57 | MRIKKQNIRNDT | 0.615 ± 0.063 | 
58 | NIAGHLHQPVQM | 0.712 ± 0.029 | 
59 | SGGGGVLGWRGG | 0.682 ± 0.022 | 
60 | SPSPLSHSPLAF | 0.647 ± 0.009 | 
61 | KEKKAKKSRKKR | 0.665 ± 0.084 | 
62 | NPYKREKKKNKK | 0.787 ± 0.14 | 
63 | PLLPPPPPPPPT | 0.718 ± 0.025 | 
64 | KFSVVMFLDGSW | 0.697 ± 0.084 | 
65 | CVGFVVVGGVLG | 0.667 ± 0.05 | 
66 | AVPSAPPNPDAS | 0.704 ± 0.046 | 
67 | STRPDLLLLAES | 0.6 ± 0.055 | 
68 | GGGRWWRVGVGF | 0.729 ± 0.021 | 
69 | YVGLSSRSFLSF | 0.687 ± 0.033 | 
70 | PPHPSPPHPSSA | 0.752 ± 0.01 | 
71 | ALPPPPPHPSPS | 0.717 ± 0.019 | 
72 | SRRCKAFLCRGY | 0.6663 ± 0.0053 | 

Row | Sequence | protein stability index [2] | other results
73 | SGACRLEESGKV | 0.755 ± 0.061 | 
74 | RCVSLDVPPTGA | 0.688 ± 0.013 | 
75 | GLVLPGHLTLAS | 0.628 ± 0.08 | 
76 | KPRSRMHRIVRI | 0.722 ± 0.027 | 
77 | GSSRRMGEGVEM | 0.69 ± 0.02 | 
78 | PTPPTAAPAAPR | 0.714 ± 0.053 | 
79 | FQPTYCVHKQNK | 0.722 ± 0.024 | 
80 | SVPLYRLSSWRN | 0.695 ± 0.021 | 
81 | SLPSLLFLISLP | 0.543 ± 0.054 | 
82 | KKQKKWQSNTIR | 0.696 ± 0.034 | 
83 | DSGYRQWGGTGR | 0.714 ± 0.12 | 
84 | MAEGRARLWGPS | 0.701 ± 0.024 | 
85 | RQGMGPKLVKHQ | 0.633 ± 0.1 | 
86 | SSGPPRLPHSRR | 0.646 ± 0.046 | 
87 | GPTPAPSASRCF | 0.6114 ± 0.0058 | 
88 | HLPSLLRPPFLL | 0.7038 ± 0.0018 | 
89 | PPPHPKPPPAGH | 0.62 ± 0.069 | 
90 | AWGRRGGRMKVG | 0.62 ± 0.022 | 
91 | SVPLTLLPPLFP | 0.694 ± 0.016 | 
92 | RALPPPLCPPPH | 0.606 ± 0.056 | 
93 | FSPPPLPAASPS | 0.664 ± 0.071 | 
94 | QSSWVGRWVRGG | 0.659 ± 0.02 | 
95 | EVDRRRSVITLP | 0.668 ± 0.033 | 
96 | FWSRGANGGVLV | 0.6775 ± 0.0037 | 

Row | Sequence | protein stability index [2] | other results
97 | MMMRKAPTARVS | 0.637 ± 0.024 | 
98 | VLTSLVRGVFTG | 0.632 ± 0.069 | 
99 | TGKTHSGNKYER | 0.684 ± 0.059 | 
100 | KNSKKKKLKIER | 0.804 ± 0.27 | 
101 | TLTDCRKKCGRV | 0.715 ± 0.097 | 
102 | PIALPLPPPTPS | 0.757 ± 0.08 | 
103 | RVSAPPSFHGSF | 0.722 ± 0.014 | 
104 | GLGWPPGEARRV | 0.621 ± 0.047 | 
105 | WVVSRGPFAVGP | 0.68 ± 0.021 | 
106 | PQGAYLFTSTCI | 0.753 ± 0.054 | 
107 | LVFGGRMRVYRP | 0.678 ± 0.016 | 
108 | VGSAENQHTGRM | 0.678 ± 0.018 | 
109 | LSAPPPPPPPSP | 0.7026 ± 0.003 | 
110 | PRLPSPPGAPPP | 0.726 ± 0.011 | 
111 | SPTIRPDESPVQ | 0.6893 ± 0.0067 | 
112 | VLVSVSVPLRGR | 0.78 ± 0.1 | 
113 | TKSQGGLTWASC | 0.626 ± 0.011 | 
114 | GKRKKRRKRRRT | 0.664 ± 0.043 | 
115 | LAVNGEIERVCD | 0.636 ± 0.11 | 
116 | LTSWYGNKLVAV | 0.588 ± 0.029 | 
117 | GSFLSAQRPCPV | 0.661 ± 0.023 | 
118 | VFLASFLVCPIS | 0.662 ± 0.057 | 
119 | GDFFVSFRCLLL | 0.606 ± 0.027 | 
120 | LWVESRFVQTFL | 0.6663 ± 0.0013 | 

Row | Sequence | protein stability index [2] | other results
121 | VWRVGRARGQMG | 0.6953 ± 0.0017 | 
122 | LPSKSTVALGPL | 0.633 ± 0.046 | 
123 | LVRNGLCCTSRQ | 0.704 ± 0.029 | 
124 | RYFPNRGSGLTY | 0.786 ± 0.037 | 
125 | PPAFLSPPLDPL | 0.6054 ± 0.0032 | 
126 | TPASPSPPPRPP | 0.625 ± 0.019 | 
127 | PAPRWFSHPSYP | 0.676 ± 0.01 | 
128 | ARLAYESSPLPR | 0.7185 ± 0.0056 | 
129 | AVTSLGGGIILN | 0.659 ± 0.045 | 
130 | SFPPPFLISLSP | 0.676 ± 0.042 | 
131 | LTLGSSGTSFLS | 0.698 ± 0.016 | 
132 | HNRSFLIPFFPF | 0.671 ± 0.085 | 
133 | GLAIRRDWLGWV | 0.745 ± 0.056 | 
134 | LLSRQEWMTGRS | 0.673 ± 0.031 | 
135 | RSGRCWSFPFSV | 0.703 ± 0.026 | 
136 | PLPTGTQPTRHR | 0.669 ± 0.0079 | 
137 | KHQKNRLRDLGS | 0.708 ± 0.03 | 
138 | PFPPLRSLPRPP | 0.737 ± 0.099 | 
139 | EVRRGVGGAWEG | 0.648 ± 0.011 | 
140 | PPPRPGFCLFLP | 0.674 ± 0.05 | 
141 | FLLTVFPPLFFP | 0.704 ± 0.011 | 
142 | RGVGAGGLEGIG | 0.535 ± 0.011 | 
143 | LPPSPPPFPPLP | 0.642 ± 0.011 | 
